Experimental data as given in article PMC4831154, “Expression and characterization of a novel 1,3-regioselective cold-adapted lipase from Rhizomucor endophyticus suitable for biodiesel synthesis” (Biotechnology for Biofuels, 2016).

Experiments:
Experiment in all cases: purified protein
Format in all cases: biochemical, Mucor endophyticus
Details in all cases: 50 mM citrate buffer pH 6.0, 40 °C, 5 min
[1] = substrate: CCCCCCCCCCCC(=O)Oc1ccc([N+](=O)[O-])cc1
[2] = substrate: CCCCCCCC(=O)Oc1ccc([N+](=O)[O-])cc1
[3] = substrate: CCCCCCCCCCCCCC(=O)Oc1ccc([N+](=O)[O-])cc1

B1: ReLipA (Mucor endophyticus) (protein)
chain: PAAGTKGETSSAAAPHNNATMTASSYILPPIIPSRTKPGNPAFKGDVNAEAESIAKNKKWYEDHGGNFKNITKRDTETVGGMTMDLPANAPPVTTSTGSGVVTASAAQIANFKLYAGIASTAYCRGVVPLGSWTCNNCLKYVPDGKLLVTFSSLLADTNGFVLRSDSQKTIHLVFRGTNSIRSAITDLIFDLATYSPVSGAKVHRGFLASYKEVVNTYFPVVQAQLTAYPSYKVVISGHSLGGAQALLAGMDLYQRDKRLSPSNLSIYTVGCPRVGNPAFAYYVDSTGIPFSRSVNDRDIVPHVPPQAFGYLHPGVEAWDISSRVQICTANIETNKCSNSIVPFTSFVDHLTYYGINEGLCL
notes: ORF 1167 bp; SP-Sepharose purified
B1 showed a Km [1] of 640 ± 60 µM, a kcat/Km [1] of 416 M⁻¹ s⁻¹ and a Km [2] of 2300 ± 210 µM. It also gave a kcat/Km [2] of 387 M⁻¹ s⁻¹, a Km [3] of 100 ± 10 µM and a kcat/Km [3] of 1790 M⁻¹ s⁻¹.
